{"source": "paper PMC7112944", "about": "(Science Advances, 2020)", "binders": {"B1": {"name": "Phosphoprotein XD domain (PXD), P_(457–507) (domain or fragment, measles virus, UniProt P03422 457-507, looked up)", "chain": "GPASRSVIRSIIKSSRLEEDRKRYLMTLLDDIKGANDLAKFHQMLMKIIMK"}}, "key": {"[1]": {"target": "T1, N_(460–525) (measles virus, UniProt P04851 460-525)", "T1 sequence (looked up)": "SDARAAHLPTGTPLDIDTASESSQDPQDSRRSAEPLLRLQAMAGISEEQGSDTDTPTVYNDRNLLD", "test": "ITC + NMR titration"}, "[2]": {"target": "T1, N_(460–525)", "test": "ITC"}}, "data": [{"binder": "B1", "values": [{"measurement": "Kd", "setting": "[1]", "value": "~5", "unit": "µM"}, {"measurement": "dH", "setting": "[2]", "value": "-10.46 ± 0.0465", "unit": "kcal/mol"}, {"measurement": "stoichiometry N", "setting": "[2]", "value": 0.927, "unit": "sites"}]}]}
